Experimental data as given in patent publication US20250257126A1 (CAMBRIDGE ENTERPRISE, published 2025).
Where a chain is given by its changes, count along the chain named.

Tests used:
[1] = target: T1, RAD-displayed Fragment 1A of human LGR5 (human); assay: bio-layer interferometry (Octet), captured RAD-displayed fragment
T1 construct: also called Frag1A
T1 sequence (O75473 22-37, looked up): GSSPRSGVLLRGCPTH

murine LGR5 transgene [2] = target: T2, murine LGR5 transgene (mouse, UniProt Q9Z1P4 22-907); assay: western blot of lysates of HEK293T cells expressing mLGR5, hLGR5 or cynoLGR5 transgenes, probed with hybridoma clone 1
T2 construct: whole, on cells; Overexpressed in HEK293T cells with N-terminal HA tag, V2 receptor tail and eGFP; also tested as lysate; also called mLGR5; mLGR5-eGFP
T2 sequence (looked up): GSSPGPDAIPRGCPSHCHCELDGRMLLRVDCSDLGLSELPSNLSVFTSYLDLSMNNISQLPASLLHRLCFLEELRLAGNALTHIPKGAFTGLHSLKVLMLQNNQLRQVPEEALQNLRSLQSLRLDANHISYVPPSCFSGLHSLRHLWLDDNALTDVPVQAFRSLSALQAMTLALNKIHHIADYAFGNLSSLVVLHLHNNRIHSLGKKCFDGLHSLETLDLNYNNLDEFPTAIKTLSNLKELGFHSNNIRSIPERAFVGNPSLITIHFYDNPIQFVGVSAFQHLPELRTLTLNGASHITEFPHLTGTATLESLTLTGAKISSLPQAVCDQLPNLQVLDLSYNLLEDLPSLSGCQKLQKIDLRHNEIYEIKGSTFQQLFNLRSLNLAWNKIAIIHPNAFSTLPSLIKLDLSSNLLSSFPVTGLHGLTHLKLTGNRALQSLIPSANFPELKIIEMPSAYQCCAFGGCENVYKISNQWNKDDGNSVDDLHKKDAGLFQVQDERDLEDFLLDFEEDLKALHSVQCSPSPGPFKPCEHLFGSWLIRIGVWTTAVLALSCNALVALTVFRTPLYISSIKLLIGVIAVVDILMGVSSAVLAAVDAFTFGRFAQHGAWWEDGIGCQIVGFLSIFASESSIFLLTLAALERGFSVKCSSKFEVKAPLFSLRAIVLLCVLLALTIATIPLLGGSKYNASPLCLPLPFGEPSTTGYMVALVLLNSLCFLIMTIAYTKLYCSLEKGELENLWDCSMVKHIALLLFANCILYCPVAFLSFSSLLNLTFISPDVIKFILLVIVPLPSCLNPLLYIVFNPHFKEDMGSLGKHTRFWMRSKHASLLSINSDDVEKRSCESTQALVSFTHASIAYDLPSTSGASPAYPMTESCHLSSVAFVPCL

[3] = target: T3, human LGR5-eGFP transgene (human, UniProt O75473 22-907); assay: as above
T3 construct: Tested on live or fixed cells and as cell lysates on western blots; also called hLGR5-eGFP; LGR5-GFP
T3 sequence: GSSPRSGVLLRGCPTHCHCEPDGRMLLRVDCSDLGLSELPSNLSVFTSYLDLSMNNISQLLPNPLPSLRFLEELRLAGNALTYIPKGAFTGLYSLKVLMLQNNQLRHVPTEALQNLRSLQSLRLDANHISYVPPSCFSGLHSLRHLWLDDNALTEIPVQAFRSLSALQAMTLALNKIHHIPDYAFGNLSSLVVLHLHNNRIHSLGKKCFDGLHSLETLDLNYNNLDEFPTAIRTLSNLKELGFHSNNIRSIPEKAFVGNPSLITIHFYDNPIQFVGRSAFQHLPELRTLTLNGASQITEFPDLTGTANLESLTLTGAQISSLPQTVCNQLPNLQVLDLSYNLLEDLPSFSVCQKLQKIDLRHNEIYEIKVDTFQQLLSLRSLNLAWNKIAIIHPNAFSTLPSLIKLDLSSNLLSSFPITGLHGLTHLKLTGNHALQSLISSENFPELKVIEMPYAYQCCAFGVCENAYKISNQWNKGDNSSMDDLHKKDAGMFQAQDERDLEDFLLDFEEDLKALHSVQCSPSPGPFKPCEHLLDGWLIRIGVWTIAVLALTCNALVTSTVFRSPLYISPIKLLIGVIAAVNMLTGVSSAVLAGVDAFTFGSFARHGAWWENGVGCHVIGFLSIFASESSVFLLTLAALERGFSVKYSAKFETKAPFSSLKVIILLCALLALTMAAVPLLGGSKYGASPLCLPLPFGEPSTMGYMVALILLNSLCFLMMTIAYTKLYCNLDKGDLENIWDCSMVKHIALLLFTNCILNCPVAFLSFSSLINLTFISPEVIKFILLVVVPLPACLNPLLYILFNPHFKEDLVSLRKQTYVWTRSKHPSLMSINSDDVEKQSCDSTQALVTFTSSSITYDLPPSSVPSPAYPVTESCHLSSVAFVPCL

murine LGR5 transgene [4] = target: T2, murine LGR5 transgene; assay: western blot of lysates of HEK293T cells expressing mLGR5, hLGR5 or cynoLGR5 transgenes, probed with hybridoma clone 4
[5] = target: T3, human LGR5-eGFP transgene; assay: as above

B1: α-LGR5 variant 4 (antibody, human IgG1, kappa, V domains shown)
VH: QVQLVQSGAEVKKPGASVKVSCKASGYTFTNYWMQWVRQAPGQGLEWIGEIDPSDSYTNYNQKFQGRVTLTVDTSTSTAYMELSSLRSEDTAVYYCARSLSGYVDYWGQGTTVTVSS
VL: EIVMTQSPATLSLSPGERATLSCRASQDISNRLNWYQQKPGQAVRLLISYRSRRHTGIPARFSGSGSGTDYTLTISSLEPEDFAVYYCQQGNSLPPTFGGGTKLEIKR
notes: Humanized antibody; also called α-LGR5v4; clone 2.4
- Kd [1]: 2 nM

B2: α-LGR5 clone 1 (antibody, mouse IgG1, kappa, V domains shown)
VH: QVQLQQPGAELVKPGASVKLSCKASGYTFTSYWMQWVKQRPGQGLEWIGEIDPSDYYTNYNQKFKGKATLTVDTSSSTAYMQLSSLTSEDSAVYYCARSLSGYVDYWGQGTTLTVSS
VL: DIQMTQSTSSLSASLGDRVTINCRASQDIRNRLNWYQQKPDGTVKLLISYRSRLQSGVPSRFSGSGSGTEYSLTISNLEQEDIATYFCQQGNTLPPTFGGGTKLEVRR
notes: Murine monoclonal antibody from hybridoma; also called hybridoma clone 1; antibody 1
- binding result (murine LGR5 transgene [2]): no binding
- binding result [3]: binds

B3: α-LGR5 clone 4 (antibody, mouse IgG2b, kappa, V domains shown)
VH: B2 VH with S31D, Y56S, K65Q, M81I, E89D, Y103S
VL: B2 VL with S7T, N22S, R30S, E70D, S76T
notes: Murine monoclonal antibody from hybridoma; also called hybridoma clone 4; antibody 4
- binding result (murine LGR5 transgene [4]): no binding
- binding result [5]: binds
